Substitutions are numbered along the chain they refer to.

B1: 01F03R2 VHH Mono-Fc (Fc fusion)
chain: QVQLVESGGGLVQAGGSLRLSCAASGRTFSSYAMGWFRQAPGKEREFVAVISWSGGSTYYADSVKGRFTISRDNAKNTVYLQMNSLKPEDTAVYYCASGEQPGSNRPYIPEQPIEFMPTDYPSWYDYWGQGTQVTVSSSPAPELLGGPSVFLFPPKPKDTLMISRTPEVTCVVVDVSHEDPEVKFNWYVDGVEVHNAKTKPREEQYNSTYRVVSVLTVLHQDWLNGKEYKCKVSNKALPAPIEKTISKAKGQPREPQVYTKPPSREEMTKNQVSLSCLVKGFYPSDIAVEWESNGQPENNYKTTVPVLDSDGSFRLASYLTVDKSRWQQGNVFSCSVMHEALHNHYTQKSLSLSPGK
B2: 01B01R3 VHH Mono-Fc (Fc fusion)
chain: B1 chain with Q133L
B3: 01C05R3LS VHH Mono-Fc (Fc fusion)
chain: EVQLVESGGGLVQAGGSLRLSCAASGRTINTYVMGWFRQAPGKEREFVARIDWSGSSTDYADSVKGRFTISRDNAKNTVYLQMNSLKPEDTAVYYCAGSAYYSGYVTHRDFGSWGQGTLVTVSSSPAPELLGGPSVFLFPPKPKDTLMISRTPEVTCVVVDVSHEDPEVKFNWYVDGVEVHNAKTKPREEQYNSTYRVVSVLTVLHQDWLNGKEYKCKVSNKALPAPIEKTISKAKGQPREPQVYTKPPSREEMTKNQVSLSCLVKGFYPSDIAVEWESNGQPENNYKTTVPVLDSDGSFRLASYLTVDKSRWQQGNVFSCSVMHEALHNHYTQKSLSLSPGK
B4: 01G09R2 VHH Mono-Fc (Fc fusion)
chain: B3 chain with V64A
B5: 01H11R3LS VHH Mono-Fc (Fc fusion)
chain: B3 chain with E1Q, T31G, N77T, M83T, L119Q
B6: 01B10R3LS VHH Mono-Fc (Fc fusion)
chain: B3 chain with E1Q, N30Y, T31G, L119Q
B7: 01D07R3LS VHH Mono-Fc (Fc fusion)
chain: B3 chain with E1Q
B8: 01F01R2 VHH Mono-Fc (Fc fusion)
chain: QVQLVESGGGLVQAGGSLRLSCAASGRTFSSNPMGWFRQAPGKEREFVAAISWSGGGTYYADSVKGRFTISRDNAKNTVTLQMNSLKPEDTAVYYCASRDYSDPISLWVEDREYDYWGQGTQVTVSSSPAPELLGGPSVFLFPPKPKDTLMISRTPEVTCVVVDVSHEDPEVKFNWYVDGVEVHNAKTKPREEQYNSTYRVVSVLTVLHQDWLNGKEYKCKVSNKALPAPIEKTISKAKGQPREPQVYTKPPSREEMTKNQVSLSCLVKGFYPSDIAVEWESNGQPENNYKTTVPVLDSDGSFRLASYLTVDKSRWQQGNVFSCSVMHEALHNHYTQKSLSLSPGK
B9: 03B07R3 VHH Mono-Fc (Fc fusion)
chain: B8 chain with Q122L
B10: 03D05R3 VHH Mono-Fc (Fc fusion)
chain: B8 chain with Q1E, D111G, Q122L
B11: 01A09R2 VHH Mono-Fc (Fc fusion)
chain: B8 chain with Q1E
B12: 01D01R3 VHH Mono-Fc (Fc fusion)
chain: EVQLVESGGGLVQAGGSLRLSCAASGRTFSVYGMGWFRQAPGQERAFVAAISWSDGSTYYADSVKGRFTISRDNAKNTMYLQMNSLKPEDTAVYFCAADLTGWGLDADVSEYDYWGQGTQVTVSSSPAPELLGGPSVFLFPPKPKDTLMISRTPEVTCVVVDVSHEDPEVKFNWYVDGVEVHNAKTKPREEQYNSTYRVVSVLTVLHQDWLNGKEYKCKVSNKALPAPIEKTISKAKGQPREPQVYTKPPSREEMTKNQVSLSCLVKGFYPSDIAVEWESNGQPENNYKTTVPVLDSDGSFRLASYLTVDKSRWQQGNVFSCSVMHEALHNHYTQKSLSLSPGK
B13: 01E03R2 VHH Mono-Fc (Fc fusion)
chain: B12 chain with Q120L
B14: 02B11R3 VHH Mono-Fc (Fc fusion)
chain: EVQLVESGGGLVQAGGSLRLSCAASGRTFSPYGMGWFRQTPGKERAFVAAVDWNDGSTYYSDSVKGRFTISRDNAKNTVYLQMNSLKSEDTAVYYCAADLTGWGLDADVSEYDYWGQGTLVTVSSSPAPELLGGPSVFLFPPKPKDTLMISRTPEVTCVVVDVSHEDPEVKFNWYVDGVEVHNAKTKPREEQYNSTYRVVSVLTVLHQDWLNGKEYKCKVSNKALPAPIEKTISKAKGQPREPQVYTKPPSREEMTKNQVSLSCLVKGFYPSDIAVEWESNGQPENNYKTTVPVLDSDGSFRLASYLTVDKSRWQQGNVFSCSVMHEALHNHYTQKSLSLSPGK
B15: 01G04R3 VHH Mono-Fc (Fc fusion)
chain: B12 chain with E1Q
B16: 03D09R3 VHH Mono-Fc (Fc fusion)
chain: QVQLVESGGGLVQAGGSLRLSCAASGRTVSSVAMGWFRQAPGKEREFVATISWTGGSTYYADSVKGRFTISRDNAKNTAYLQMNSLKPEDTAVYYCAAGYPADPIALMTLRYEYDYWGQGTLVTVSSSPAPELLGGPSVFLFPPKPKDTLMISRTPEVTCVVVDVSHEDPEVKFNWYVDGVEVHNAKTKPREEQYNSTYRVVSVLTVLHQDWLNGKEYKCKVSNKALPAPIEKTISKAKGQPREPQVYTKPPSREEMTKNQVSLSCLVKGFYPSDIAVEWESNGQPENNYKTTVPVLDSDGSFRLASYLTVDKSRWQQGNVFSCSVMHEALHNHYTQKSLSLSPGK
B17: 03D01R3 VHH Mono-Fc (Fc fusion)
chain: EVQLVESGGGLVQPGGSLRLSCAASGFTFRTYYMGWFRQAPGKEREFVGVTRSSDDVTYYADSVKGRFTISRDNAKNTVYLQMSRLKPEDTAVYYCAAKPVPITRYSFPQIGEEYDYWGQGTLVTVSSSPAPELLGGPSVFLFPPKPKDTLMISRTPEVTCVVVDVSHEDPEVKFNWYVDGVEVHNAKTKPREEQYNSTYRVVSVLTVLHQDWLNGKEYKCKVSNKALPAPIEKTISKAKGQPREPQVYTKPPSREEMTKNQVSLSCLVKGFYPSDIAVEWESNGQPENNYKTTVPVLDSDGSFRLASYLTVDKSRWQQGNVFSCSVMHEALHNHYTQKSLSLSPGK
B18: 01C09R3 VHH Mono-Fc (Fc fusion)
chain: B17 chain with P14A
B19: 02B09R3 VHH Mono-Fc (Fc fusion)
chain: B17 chain with Q39R, N77D
B20: 01D02R3LS VHH Mono-Fc (Fc fusion)
chain: QVQLVESGGGLVQAGDSLTLSCAASGRSVGFDTYGMAWFRQAPGKEREFVASIAYNGETTSYADSVQGRFTVTRENAKNTIALRMNGLKPDDTAVYYCAAAQYYLTGTSFPAKFWGQGTLVTVSSSPAPELLGGPSVFLFPPKPKDTLMISRTPEVTCVVVDVSHEDPEVKFNWYVDGVEVHNAKTKPREEQYNSTYRVVSVLTVLHQDWLNGKEYKCKVSNKALPAPIEKTISKAKGQPREPQVYTKPPSREEMTKNQVSLSCLVKGFYPSDIAVEWESNGQPENNYKTTVPVLDSDGSFRLASYLTVDKSRWQQGNVFSCSVMHEALHNHYTQKSLSLSPGK
B21: 01D08R3 VHH Mono-Fc (Fc fusion)
chain: QVQLVESGGGLVQAGDSLRLSCAASGRTSSLYNMGWFRQAPGQEREFVAAIHWGGGRTYYADSVKGRFTISRDNAKNTVYLQMNSLEPGDTANYYCAARRAPELLDDYKQKPEEIGAYHYWGQGTQVTVSSSPAPELLGGPSVFLFPPKPKDTLMISRTPEVTCVVVDVSHEDPEVKFNWYVDGVEVHNAKTKPREEQYNSTYRVVSVLTVLHQDWLNGKEYKCKVSNKALPAPIEKTISKAKGQPREPQVYTKPPSREEMTKNQVSLSCLVKGFYPSDIAVEWESNGQPENNYKTTVPVLDSDGSFRLASYLTVDKSRWQQGNVFSCSVMHEALHNHYTQKSLSLSPGK

The first test deals with T1, human pIgR extracellular domain (ECD) (human, UniProt P01833 19-638).
T1 construct: Bought from R&D Systems (Cat 2717-PG-050); also called hpIgR ECD
T1 sequence (P01833 other isoform, or with tags, fused parts or gaps): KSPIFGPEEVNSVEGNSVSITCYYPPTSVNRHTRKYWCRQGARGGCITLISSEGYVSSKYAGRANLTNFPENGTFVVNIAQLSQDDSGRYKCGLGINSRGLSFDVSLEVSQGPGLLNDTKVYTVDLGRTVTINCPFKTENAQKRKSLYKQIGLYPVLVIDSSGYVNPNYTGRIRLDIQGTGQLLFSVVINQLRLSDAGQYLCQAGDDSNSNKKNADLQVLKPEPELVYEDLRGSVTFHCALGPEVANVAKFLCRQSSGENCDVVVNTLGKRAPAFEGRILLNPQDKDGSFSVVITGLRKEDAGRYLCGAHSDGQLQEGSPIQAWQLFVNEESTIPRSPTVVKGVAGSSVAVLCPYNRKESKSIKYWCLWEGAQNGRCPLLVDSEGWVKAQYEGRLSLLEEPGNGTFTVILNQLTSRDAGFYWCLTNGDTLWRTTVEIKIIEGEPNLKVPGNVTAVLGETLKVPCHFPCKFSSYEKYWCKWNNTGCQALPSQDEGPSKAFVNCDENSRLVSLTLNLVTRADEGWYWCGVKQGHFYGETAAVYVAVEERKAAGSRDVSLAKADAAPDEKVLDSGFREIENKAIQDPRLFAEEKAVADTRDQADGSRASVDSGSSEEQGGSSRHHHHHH
Kind of test: SPR, VHH captured by anti-Fc, ECD analyte. The procedure: (§1) In an assay, two flow cells of the SPR were used, in which the flow cell 1 ran the buffer reference, and the flow cell 2 ran the analyte. […] The HBSP (GE) buffer was followed at a flow rate of 30 μL/min. Then, the VHHs were captured on the anti-human Fc protein surface at 0.5 ug/ml (˜200-300 RU) on the flow cell 2. The running buffer was changed to HBSP with 100 ug/ml BSA after the capture. Next, the pIgR extracellular domains were used as analyte and loaded in a series of concentrations, starting at 30 nM with further 3-fold dilution series.
(§2) The extracellular domains were prepared as follows: cynomolgus monkey and rat extracellular domains were produced and characterized in house; mouse and human pIgR extracellular domains were purchased from R&D Systems (Cat #2800-PG-050 & 2717-PG-050 respectively). The pIgR extracellular domains were injected from low to high concentration using a single-cycle kinetics method. The off-rate was monitored at 30 minutes after the last or highest concentration injection. The reference run was completed under the same conditions except that the pIgR injection was replaced by buffer injection.
(§3) The raw data were processed by subtracting two sets of reference data from the response data: (1) reference flow cell 1 subtracted from sample flow cell 2; and (2) buffer blank run subtracted from experimental run. The processed data at all concentrations for each VHH were globally fit to a 1:1 simple Langmuir binding model to extract estimates of the kinetic constants (kₒₙ, koff) and affinity constants (KD).
Background: Surface plasmon resonance follows binding to a sensor surface in real time, without labels.
B1 gave a Kd of 1.36 nM.
The same measure, in the same setting: the value for B2 was 1.38 nM; that for B3 was 5.77 nM.
B4: the affinity, expressed as Kd, was 6.58 nM.
Still for that read-out and setting: to B5 belongs 8.42 nM; to B6, 38 nM.
On the same count and under the same terms, to B7 belongs 9.78 nM; to B8, 2.13 nM; to B9, 2.33 nM.
Turning to B10, the Kd was 2.14 nM.
The same measure, in the same setting: the value for B11 was 2.14 nM; that for B12 was 5.96 nM.
The same measure, in the same setting: to B13 belongs 6.1 nM.
The same measure, in the same setting: to B14 belongs 0.858 nM; to B15, 6.22 nM; to B16, 0.072 nM.
Turning to B17, binding was put at a Kd of 2.26 nM.
In the case of B18, the affinity, expressed as Kd, was 2.18 nM.
Still for that read-out and setting: to B19 belongs 2.46 nM; to B20, 0.809 nM.
On the same count and under the same terms, the value for B21 was 0.195 nM.

A further test deals with T2, cynomolgus monkey pIgR extracellular domain (cynomolgus monkey, UniProt A0A2K5WMU9 19-638).
T2 construct: extracellular domain
T2 sequence (A0A2K5WMU9 entry or part of it): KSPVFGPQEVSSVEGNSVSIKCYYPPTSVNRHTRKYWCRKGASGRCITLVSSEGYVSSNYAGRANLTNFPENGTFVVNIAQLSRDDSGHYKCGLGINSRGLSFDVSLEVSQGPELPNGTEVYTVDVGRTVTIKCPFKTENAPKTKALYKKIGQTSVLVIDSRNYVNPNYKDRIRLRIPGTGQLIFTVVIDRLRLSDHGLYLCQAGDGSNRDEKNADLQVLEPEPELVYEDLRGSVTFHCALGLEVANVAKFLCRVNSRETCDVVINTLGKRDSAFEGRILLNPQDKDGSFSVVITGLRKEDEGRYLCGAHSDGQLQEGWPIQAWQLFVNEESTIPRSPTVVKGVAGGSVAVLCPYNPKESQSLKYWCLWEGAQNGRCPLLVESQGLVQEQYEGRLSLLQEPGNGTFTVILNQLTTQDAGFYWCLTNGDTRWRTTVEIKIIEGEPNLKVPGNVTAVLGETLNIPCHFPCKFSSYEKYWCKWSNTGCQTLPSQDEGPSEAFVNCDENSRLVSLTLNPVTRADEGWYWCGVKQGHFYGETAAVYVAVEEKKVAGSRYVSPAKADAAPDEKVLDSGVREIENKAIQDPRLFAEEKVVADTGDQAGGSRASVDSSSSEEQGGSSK
Kind of test: SPR, VHH captured by anti-Fc, ECD analyte. Here is the method: as §1, §2, §3
For B1, the Kd worked out at 3.57 nM.
Still for that read-out and setting: to B2 belongs 3.78 nM; to B3, 84.9 nM.
Regarding B4, the Kd is 106 nM.
Same read-out and setting: to B5 belongs 252 nM.
The same measure, in the same setting: the value for B6 was 192 nM; that for B7 was 103 nM.
Regarding B8, binding was characterised by a dissociation constant (Kd) of 4.08 nM.
The same measure, in the same setting: to B9 belongs 4.26 nM; to B10, 4.59 nM.
B11 had a Kd of 4.02 nM.
On the same count and under the same terms, the value for B12 was 375 nM.
On the same count and under the same terms, to B13 belongs 373 nM; to B14, 101 nM; to B15, 399 nM.
In the case of B16, the affinity, expressed as Kd, was 0.004 nM.
Still for that read-out and setting: to B17 belongs 5.51 nM; to B18, 5.73 nM.
Same read-out and setting: to B19 belongs 9.51 nM; to B20, 0.885 nM.
Still for that read-out and setting: to B21 belongs 448 nM.

As a reminder, the Kd is a measure of binding affinity in units of concentration.

These data come from US20220112276A1 (Janssen / Centocor, published 2022).
